Reference: patent US9389182B2 (University of Southern California, priority 2011, dated 2016)

What was measured:
BSA [1] = target: T1, BSA (Bos taurus, UniProt P02769); assay: Blocking of free carboxyl groups on BSA before AMC labeling (SDS-PAGE, native gels, gel fluorescence); set-up: species or system bovine; conditions: 50 mg BSA, 1 h
T1 construct: purchased thermo-Fisher BP1605-100
Procedure: FIG. 2. […] Values are means±SE, n=3. […] Values are means±SE, n=3. […] A silver stain was later performed. (D) N-(3-Dimethylamineopropyl)-N′-ethylcarbodiimide (1 ng/ml to 100 μg/ml) which blocks free carboxyl groups, was incubated with 50 mg of BSA for 1 hr. BSA was extensively dialyzed then prepared as in panel (C). Increasing concentrations of N-(3-Dimethylamineopropyl)-N′-ethylcarbodiimide, caused a progressive decrease in BSA's electrophoretic mobility, and loss of fluorescence at 66 kDa; a representative gel is shown to the left of the panel, and fluorescence is quantified in the graph to the right; […]
For SDS Page gels, samples were mixed with 25% Nupage loading Dye (Invitrogen, Carlsbad, Calif., USA, catalogue#NP0007) containing 5% 2-mercaptoethanol, Samples were boiled for 3 minutes then added to a 12% Tris-glycine SDS page gel. […] In experiments where gel fluorescence was analyzed, gels were placed in a chamber and exposed to an excitation wavelength of 365 nm. […]

BSA [2] = target: T1, BSA; assay: Blocking of exposed amine groups on BSA before AMC labeling; set-up: species or system bovine; conditions: 0.5-50 mM
Excerpt: (§1) In some experiments samples were pre-treated with either N-(3-Dimethylaminopropyl)-N′-ethylcarbodiimide hydrochloride (Sigma-Aldrich, MO, USA, catalogue#E6383-1G) to block free protein carboxyl groups, with sulfo-N-hydroxysulfosuccinimide-acetate (Pierce, Rockford, Ill., USA, catalogue #26777) to block free protein amino groups, or with tryptamine (Sigma-Aldrich, MO, USA, catalogue#193747-10G) to disrupt potential non-covalent interactions in protein hydrophobic pockets.
To test whether exposed amine groups on the protein might react with the carboxyl group on the fluorophore, we used 0.5-50 mM sulfo-NHS-acetate was used to block exposed amine groups on BSA. […] This implies that the complex formed between AMC and BSA is independent of exposed protein amine groups.

BSA [3] = target: T1, BSA; assay: Tryptamine competition for non-covalent AMC binding sites on BSA; set-up: species or system bovine; conditions: 100 fold excess
Excerpt: as §1
Another possibility was that AMC might be sequestered in protein hydrophobic pockets by non-covalent interactions. […] The ability of the BSA/AMC complex to function as a substrate for proteolysis was also tested.

Trypsin = assay: Proteolysis of AMC-labeled proteins by trypsin, fluorescence assay (AMC release); type: biochemical; conditions: for substrate for proteolysis by trypsin, release of fluorescent AMC: AMC-labeled protein 10 μg/ml, 10 μM trypsin
Procedure: FIG. 3. Proteolysis of AMC-labeled Proteins by Trypsin. […] Values are means±SE's, n=3. […] All assay conditions (including trypsin concentration) were identical to those in A, and each substrate protein was used at a final concentration of 10 μg/ml. […] Values are means±SE's, n=3;
FIG. 4. Protease and Substrate Titration, and Particle Size of Proteolytic Degradation Products. […] Values are means±SE's, n=4, for which the fluorescence of controls was subtracted. […] Background fluorescence or radioactivity were measured in the absence of protease (proteolysis buffer alone), and proteolysis was measured by increased fluorescence or acid-soluble radioactivity after incubation with either 10 μM Trypsin, 1 μg/ml purified 20S proteosome, or 150 μg/ml MEF cell lysate. Percent degradation of Hb-AMC is reported as the percentage of total fluorescence that could be released from Hb-AMC after exhaustive proteolytic digestion (not shown), whereas percent degradation of [3H]Hb is reported as the percent of total (initial) radioactive counts released into TCA-soluble form by proteolysis. All values are means±SE's, n=3;

purified 20S proteasome = target: T2, purified 20S proteasome (Homo sapiens, UniProt P28072+P28074+Q99436); assay: Degradation of native and oxidized AMC-labeled proteins by purified 20S proteasome; type: biochemical; conditions: for increase in susceptibility to proteasomal degradation: following mild oxidation with H2O2 (1.0 mM); for substrate for the purified proteasome: unoxidized form
T2 construct: purchased Biomol PW8720-0050
Procedure: (§2) FIG. 7. Proteolytic Susceptibility of Modified AMC-labeled Proteins. (A) The capacity of 20S proteasome to degrade both the native and oxidized forms of Hb-AMC and BSA-AMC was measured. For both assays, 1 μg/ml of purified 20S proteasome was combined with 10 μg/ml of Hb-AMC, Hbox-AMC, BSA-AMC, or BSAox-AMC and incubated for 4 hr at 37° C. Protein degradation was then measured as per FIG. 4. Hbox-AMC, and BSAox were prepared by treating Hb-AMC and BSA-AMC with 1.0 mM H2O2 followed by extensive dialysis. (B) The Capacity of MEF cell lysates to degrade various modified forms of Hb-AMC was measured. Hb-AMC was modified by incubation with dilute HCl at pH 4, 10% 2-mercaptoethanol, 70% methanol, 1 mM peroxynitrite, or 1 mM H2O2, or was boiled at 100° C. for 60 minutes, or subjected to freeze-thawing at −80° C. The substrates were then extensively dialyzed and incubated with 150 μg/ml of MEF cell lysates for 4 hr. In both panels, values are means±SE's, n=3.

MEF cell lysates = assay: Degradation of modified Hb-AMC by MEF cell lysates; type: biochemical, murine; conditions: oxidative modification by H2O2 or peroxynitrite
Procedure: as §2, with “In both panels, values are means±SE's, n=3.” left out
Murine embryonic fibroblasts (MEF) from ATCC (Manassas, Va., USA, catalogue CRL-2214) were grown in Dulbecco's Modified Eagle's Medium (DMEM, Mediatech, Manassas, Va., catalogue #10-013-CV) supplemented with 10% Fetal Bovine Serum (Hyclone, Logan, Utah, catalog #SH30070.03). […] The lysates were then centrifuged at 10,000 g for 10 minutes, after which the supernatants were retained (the pellets discarded) and protein content was determined by BCA assay.

[4] = Stability of Hb-AMC after frozen storage or denaturation (background release of free AMC); type: physicochemical
Procedure: FIG. 5. Stability of AMC-labeled Hemoglobin After Frozen Storage or Denaturation. (A) Hb-AMC was stored at −20° C. for up to 21 weeks. […] Release of free AMC from the Hb-AMC complex (background fluorescence) was then measured in comparison with control (untreated Hb-AMC). In all three panels, values are means±SE's, n=3;
The stability of AMC-labeled substrates, the resistance of the AMC-protein linkage to various treatments, and the reproducibility of proteolytic assays after prolonged storage are important concerns in weighing the usefulness of the technique of various embodiments of the present invention.
Embodiments of the present invention provide a new way to label proteins for studies of oxidation-induced changes in proteolytic susceptibility. In addition to oxidants, proteolytic substrates are often subjected to various other modifying or denaturing conditions, to test for effects on proteolytic susceptibility, therefore it is important to test the stability of AMC-labeled substrates over a range of harsh conditions.

[5] = pH stability of the Hb-AMC complex; type: physicochemical; conditions: pH 1-12, 4 hr, read after readjusting to pH 7.8
Procedure: The stability of protein-AMC adducts over the same broad range of pH was determined. […] The viability of protein-AMC complexes as substrates for proteases was tested with widely different pH optima.

proteinase K = target: T3, proteinase K (Parengyodontium album, UniProt P06873); assay: Proteolysis of Hb-AMC by proteinase K (AMC release); type: biochemical; conditions: pH 11, 4 hr at 37° C.
T3 construct: purchased Oncor S4508

pepsin = pepsin (Sus scrofa, UniProt P00791); assay: Proteolysis of Hb-AMC by pepsin (AMC release); conditions: pH 2, 4 hr at 37° C.
Procedure: (§3) In each experiment, pH was adjusted appropriately for the proteinase studied, and samples were incubated at 37° C. for 4 hours.

chymotrypsin = chymotrypsin (Bos taurus, UniProt P00766); assay: Proteolysis of Hb-AMC by chymotrypsin (AMC release); conditions: pH 7.8, 4 hr at 37° C.
Procedure: as §3

[6] = stored at −20° C., repeated trials over 150 days

T1 sequence (P02769 25-607): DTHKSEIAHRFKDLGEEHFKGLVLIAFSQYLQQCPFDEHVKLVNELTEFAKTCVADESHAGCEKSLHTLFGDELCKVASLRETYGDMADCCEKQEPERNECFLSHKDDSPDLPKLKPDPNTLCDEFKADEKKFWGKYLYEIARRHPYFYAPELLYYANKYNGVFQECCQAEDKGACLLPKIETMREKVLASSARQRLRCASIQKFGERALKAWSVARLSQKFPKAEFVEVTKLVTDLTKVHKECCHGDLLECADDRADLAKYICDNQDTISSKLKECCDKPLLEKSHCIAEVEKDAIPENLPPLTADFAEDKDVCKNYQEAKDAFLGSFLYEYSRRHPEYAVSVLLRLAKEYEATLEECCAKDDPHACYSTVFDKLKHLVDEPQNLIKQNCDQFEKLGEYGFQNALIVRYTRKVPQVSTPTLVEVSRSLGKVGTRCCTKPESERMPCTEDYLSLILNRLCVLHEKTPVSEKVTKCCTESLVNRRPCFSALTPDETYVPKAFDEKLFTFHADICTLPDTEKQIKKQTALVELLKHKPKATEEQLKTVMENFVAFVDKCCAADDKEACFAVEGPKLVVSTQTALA
Sequence of pepsin (P00791 60-385): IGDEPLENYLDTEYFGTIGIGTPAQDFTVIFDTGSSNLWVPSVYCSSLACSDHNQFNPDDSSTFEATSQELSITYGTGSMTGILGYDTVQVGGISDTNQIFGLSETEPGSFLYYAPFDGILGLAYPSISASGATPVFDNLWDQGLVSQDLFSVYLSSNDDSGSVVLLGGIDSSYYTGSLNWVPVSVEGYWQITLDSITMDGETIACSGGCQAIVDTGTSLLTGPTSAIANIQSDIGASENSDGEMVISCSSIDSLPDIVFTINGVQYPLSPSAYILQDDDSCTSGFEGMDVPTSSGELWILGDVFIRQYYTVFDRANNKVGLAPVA
T3 sequence (P06873 106-384): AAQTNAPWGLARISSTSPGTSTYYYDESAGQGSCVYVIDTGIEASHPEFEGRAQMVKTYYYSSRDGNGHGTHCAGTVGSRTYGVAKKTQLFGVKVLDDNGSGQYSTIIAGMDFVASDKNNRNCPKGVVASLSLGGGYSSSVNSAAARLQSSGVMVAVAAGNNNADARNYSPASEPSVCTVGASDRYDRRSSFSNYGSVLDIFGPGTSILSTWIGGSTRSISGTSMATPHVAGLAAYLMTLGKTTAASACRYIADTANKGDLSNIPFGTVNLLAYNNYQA

CCN=C=NCCCN(C)C.Cl [N-(3-Dimethylaminopropyl)-N′-ethylcarbodiimide hydrochloride]
protein carboxyl-group blocking, decreased electrophoretic mobility (BSA [1]): dose-dependent protein carboxyl-group blocking | formation of BSA-AMC adducts, fluorescent band at 66 kDa (BSA [1]; then AMC and NaCNBH3): prevented the formation of BSA-AMC adducts

CC(=O)ON1C(=O)CC(S(=O)(=O)O)C1=O (centres unmarked) [sulfo-NHS-acetate, sulfo-N-hydroxysulfosuccinimide-acetate]
change in the fluorescence of the BSA-AMC complex (BSA [2]): no significant change | free amine groups on BSA blocked (BSA [2]): 80%

NCCc1c[nH]c2ccccc12 [tryptamine]
association between AMC and BSA blocked (BSA [3]): above 30% | effect on effectiveness of BSA as a proteolytic substrate (BSA [3]): minimal effects

BSA-AMC: AMC-labeled bovine serum albumin
substrate for proteolysis by trypsin, release of fluorescent AMC (Trypsin): effective and sensitive substrates | increase in susceptibility to proteasomal degradation (purified 20S proteasome): four | substrate for the purified proteasome (purified 20S proteasome): rather poor substrates

Hb-AMC: AMC-labeled hemoglobin, made by reductive labeling with AMC and sodium cyanoborohydride
substrate for proteolysis by trypsin, release of fluorescent AMC (Trypsin): effective and sensitive substrates | increase in AMC liberation after trypsin digestion (Trypsin; Hb labeled by full procedure with AMC and NaCNBH3): 80 fold | increase in AMC liberation following incubation with trypsin (Trypsin; Hb reacted with AMC alone, no NaCNBH3): six | background AMC release relative to Hb reacted with AMC alone (Trypsin; full labeling procedure with NaCNBH3): one-sixth | substrate for proteolysis (Trypsin; pH 7.8, 4 hr at 37° C.): excellent substrate | variation of trypsin-induced release of AMC on storage (Trypsin; [6]): less than 15% | sensitivity of proteolytic measurement versus [3H]Hb (purified 20S proteasome; 1 μg/ml purified 20S proteasome): broadly comparable sensitivity | increase in susceptibility to proteasomal degradation (purified 20S proteasome): more than 300 fold | substrate for the purified proteasome (purified 20S proteasome): rather poor substrates | degradation by MEF cell extracts versus unmodified (control) Hb-AMC (MEF cell lysates): significantly increased | stability of the complex to modifying or denaturing conditions ([4]; 1 mM H2O2, 1 mM peroxynitrite, dilute HCl pH 4, 10% 2-mercaptoethanol, freeze-thawing at −80° C., or 50% methanol): almost completely stable | breakdown of the Hb-AMC complex ([4]; boiling (100° C.) for 60 minutes): 3.1% | effect of repeated freeze thaw cycles on stability of the complex (background release of free AMC) ([4]; repeated −20° C. freeze-thaw cycles): did not significantly affect the stability | variation of background AMC release on storage [4, 6]: less than 15% | decrease in stability of the complex [5]: < 0.2% | substrate for proteolysis (proteinase K): excellent substrate | substrate for proteolysis (pepsin): excellent substrate | substrate for proteolysis (chymotrypsin): excellent substrate

SOD-AMC: AMC-labeled superoxide dismutase
substrate for proteolysis by trypsin, release of fluorescent AMC (Trypsin): effective and sensitive substrates

B1: catalase: catalase with the AMC fluorophore bound (AMC-labeled catalase) (conjugate, UniProt P00432 2-527, looked up)
Catalase: ADNRDPASDQMKHWKEQRAAQKPDVLTTGGGNPVGDKLNSLTVGPRGPLLVQDVVFTDEMAHFDRERIPERVVHAKGAGAFGYFEVTHDITRYSKAKVFEHIGKRTPIAVRFSTVAGESGSADTVRDPRGFAVKFYTEDGNWDLVGNNTPIFFIRDALLFPSFIHSQKRNPQTHLKDPDMVWDFWSLRPESLHQVSFLFSDRGIPDGHRHMNGYGSHTFKLVNANGEAVYCKFHYKTDQGIKNLSVEDAARLAHEDPDYGLRDLFNAIATGNYPSWTLYIQVMTFSEAEIFPFNPFDLTKVWPHGDYPLIPVGKLVLNRNPVNYFAEVEQLAFDPSNMPPGIEPSPDKMLQGRLFAYPDTHRHRLGPNYLQIPVNCPYRARVANYQRDGPMCMMDNQGGAPNYYPNSFSAPEHQPSALEHRTHFSGDVQRFNSANDDNVTQVRTFYLKVLNEEQRKRLCENIAGHLKDAQLFIQKKAVKNFSDVHPEYGSRIQALLDKYNEEKPKNAVHTYVQHGSHLSAREKANL
modifications: AMC fluorophore label
substrate for proteolysis by trypsin, release of fluorescent AMC (Trypsin): effective and sensitive substrates
